# Test results as given in the nanobody polyreactivity screen of Harvey et al. (2022).
# Assay: yeast display, Sf9 membrane polyspecificity reagent, FACS + sequencing; frameworks hold sequencing errors
# Method in brief: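 Polyreactivity labels are assigned by the sorting gate from which each nanobody was recovered. The gates were low and high (top ~1%), set on anti-HA fluorescence for expression and streptavidin fluorescence for reagent binding. Before sorting, galactose-induced (36–48 hours) yeast display cells were stained for 1 hour at 4 °C with 10% biotinylated, detergent-solubilized Sf9 membrane reagent.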
row,Sequence,polyreactivity (PSR sort gate)
1,QVQLVESGGCLVQAGGSLRLSCAASGSIFYKYAMGWYRQAPGKERELVAAITSGGRTTYADSVKGRFTISRDNAKNTVYLQMNSLKPEDTAVYYCAAVVFSRRYWVKFYYWGQGTQVNVSS,high polyreactivity
2,QVQLVESGGGLVQAGGSLRLSCAASGRTFLLYAMGWYRQAPGKERELVAAISIGGGSTRYADSVKGRFTISRDNAKNTVYLQMNSLKPEDTAVYYCAALGRRGGDYWGQGTEVTVSS,high polyreactivity
3,QVQLVESGGGLVQAGGSLRLSCAASGRIFSVYTMGWYRQAPGKERELVATISSGGRTNYADSVKGRFTISRDNAKNTVYLQLNSLKPEDTAVYYCNADYFGQESWWMDYWGQGTQVTVSS,low polyreactivity
4,QVQLVESGGGLVQAGGSLRLSCAASGFIFEWNGMGWYRQAPGKERELVAAITWSGGSTYYADSVKGRFTISRDNAKYTVYLHMNSLKPEDTAVYYCAADFPEYYLPYDYWGQGTQVTVSS,low polyreactivity
5,QVQLVESGGGLVQAGGSLRLSCAASGHFFFYYTMGWYRPAPGKERELVAGITIGGSTNYADSVKGRFTISRDNAKHTVYVQMNSLKPEDTPVYYCNVVKYVYIYSYWEYYYCGQGTQVTVSS,low polyreactivity
6,QVQLGESGGGFVQAGGSLRLSCAASGFIFAPYAMGWYRHAPGKERELDAFISWSGGRTYYADSVKGRFTLSRDKAKNTVYLLMNSLNPEDTAVYYCNARGSRRGGPGYEYWGQGTQVTVSS,high polyreactivity
7,QVQLVESGGCLVQAGGSLRFTCAASGSIFPYYAMGWYRQAPGKERELVAAISGSGGSTYYADSVTGRFTISRDNAKYTVYLQMNSLNQEDTAVYYCAARPFARYEYWGQGTQVTVSS,low polyreactivity
8,QVQLVESGGGLVQAGGSLRLSCAASGYIFYANAMGWYRQPPGKERELVAAISWSGGSTYYADSVKGRFTISRDNAKNTVYLQMNSLKPEDTAVYYCAAAYYETPWDYYYWGQGTQVTVSS,low polyreactivity
9,QVQLVESGGGLVQAGGSLSLSCADSAGTFKTNAKGWYRQAPGKERELVAAITGSGTSTYYADSVKGRFTSSRDNAKNTVYFQMNSLKPEDTAVYYCAADKLYQPGIGDDYWGQGTQVTLSS,low polyreactivity
10,QVQLVESGGGLVQAGGSLRLSCAASGRIFVPYTMGWYRQAPGKEWELVAAISRSGGSTYYADSVKGRFTISRDNAKNTVYLQMNSLKPEDTAVYYCAARATNVYSKMDSWGQGTQVTVSS,high polyreactivity
11,QVQLVESGGGLVQAGGSLRLSCAASGSTFKGTAMGWYRQAPGNERELVAAINRSGTSTYYAHSVKGRFTISRDNAKNTVYLQMNSLKPEDTAVYYCANKYFGHRFDYWGQGTQVTVSS,high polyreactivity
12,QVQLVESGGGLVQAGGSLRLSCAASGRTFVRYAMGWYRQAPGKERELVAAITRRGGSTYYADSVKGRFTISRDNAKNTVYLQMNSLKPEDTAVYYCNKAVGVTGFDYWGQGTQVTVSS,high polyreactivity
13,QVQLVESGGGLVQAGGSLRLSCAASGSTSGKNAMGWYRQAPGKERELVAAIRNSGGTTYYADSVKGRFTISRDNAKNTVYLQMNSLKPEDTAVYYCATRYYLKFLDGYNYWGQGTQVTVSS,high polyreactivity
14,QVQLVESGGGLVQAGGSLRLSCAASGSTFARYVMGWYRQAPGKERELVAAIRSTGGRTYYADSVKGRFTISRDNAKNNVYVQMNSLKPEDTAVYYCAAAFGQYSRKRFDYWGQGTQVTVSS,high polyreactivity
15,QVQLVESGGGLVQAGGSLRLSCAASGRIFIDNAMGWYRQAPGKERELVAAISWTGGRTYYADSVKGRFTISRDNAKKTVYLQMNSLKPEDPAVYYCAAKQYTRFGYYYWGQGSQVTVSS,high polyreactivity
16,QVQLVESGGGLVQAGGSLRLSCAASGFTFYANAMGWYRQAPGKERELVAAIDESGTSTNYADSVKGRFTISRDNAKNTVYLQMNSQKPEDTAVYYCAADGNSTGVYLDGGEGFAYDYWGHGTQVTVSS,low polyreactivity
17,QVQLVESGGGLVQAGGSLRLSCAASGSTIRLNAMGWYRQAPGKERELVAAISWTGGSTYYADSVKGRFTISRDNAKNTVYLQMNSLKPEDTAVYYCAADWWQGTSHYWGGAYNYWGQGTQVTVSS,low polyreactivity
18,QFQLVESGGGLVQAGGSLRLSCAASGSIFSVYAMGWYRQAPGKERELVAAITNRGGSTYYADSVKGRFTISRDNAKNTVYLQMNSLKPEDTAVYYCARGPVSYGGLYDYWGQGTQVIVSS,low polyreactivity
19,QVQLVESGGGVVQAGGSLRLSCAASGSIFPYYVMGWYRQAPGKERELVAVISQSGGSTYYADSVKGRFTISRDNAKNTVYLQMNSLKPEDTAVYYCAAESAYDAYDYWGQGTQVTVSS,high polyreactivity
20,QVQLVESGGGLVQAGGSLRLSCAASGSTFYSYTMGWYRQAPGKERELVASITRGGSTYYADSVKGRFTISRDNAKNTVYLQLNSLKPEDTAVYYCAARGRYSIARYDYWGQGTQVTVSS,high polyreactivity
21,QVQLVESGGGLVQAGGSLRLSCAASGSIFVIYAMGWYRQAPGKERELVAAISRSGGRTYYADSVKGRFTISRDNAKTTVYLQMNSLKPEDTAVYYCAAEGSTYQGAPGVYYWGQGTQVTVSS,high polyreactivity
22,QVQLVESGGGLVQAGGSLRLSCAASGRIFSRYVMGWYRQAPGKERELVAAITRNGGNTYYADSVTGRFTISRDNAKNTVYLQMNSLKPEDTAVYYCAGRAVLKSWAYYYWGQGTQVTVSS,high polyreactivity

row,Sequence,polyreactivity (PSR sort gate)
1,QVQLVESGGGLVQAGGSLRLSCAASGLIFYTYAMGWYRQAPGKERALVADINRSDGSTYYADSVKGRFTISRDNAKNTVYLQMNILKPEDTAVYYCAVVGPYYTRFGGRYYYWGQGTQVTVSS,low polyreactivity
2,QVQLVESGGGLVQAGGSLRLSCAASGITFDGYAMGWYRQAPGKERELVAAITYSGGRTYYADSVKGRFTISRDNAKNTVYLQMNSLKPEDTAVYYCAVVSRRLYDYDYWGQGTQVTVSS,high polyreactivity
3,QVQLVESGGGLVQAGGSLRLSCAASGSISGVYAMGWYRQAPGKERELVAAISRSGGSTYYADSVKGRFTISRDNAKNTVYLQMNSLKPEDTAVYYCAAEYTYYSYGGNYDYWGQGTQVSVSS,low polyreactivity
4,QVQLVESGGGLVQAGGSLRLSCAASGLTLRENAMGWYRQAPGKERELVAAITNGGSTYYADSVKGRFTISRDNAKNTVYLQMNSLKPEDTAVYYCAADNLTYVISWDSDYWGQGTQVTVSS,low polyreactivity
5,QVQLVESCGGLVHAGGSLRLSCAASGRIIIFYAMGWYRQAPGKERELVASITSGASTYADSVKGRFTISRDNAKNTVYLQLNSLKPEDTAVYYCAKDYLDATPWFTWPTYSEFDYWGQGTQVTVSS,low polyreactivity
6,QVQLVESGGGLVQAGGSLRLSCAASGSTFWGYVMGWYRQAPGKERELVAAITGSGGSTYYADSVKGRFTISRDNAKNTVYLQMNSLKPEDTAVYYCAAAWSKSTSRRYGYWGQGTQVTVSS,low polyreactivity
7,QVQLVESGGGFVQAGGSLRLSCAASGRTFRKYAMGWYRQAPGKERELVAAITSSGGSTYYADSVKGRFTISRDNAKNTVYLQMNSLKPEDTAVYYCAAGRHSEDNYWGQGTQVTVSS,high polyreactivity
8,QVQLVESGGGLVQAGGSLRLSCAASGSIFEANVMGWYRQAPGKERELVASISSDGTSTYYADSVKGRFTISRDNAKNTVYLQMNSLKPEDTAVYYCNADAGAGWYPDSKYDYDYWGQGTQVTVSS,low polyreactivity
9,QVQLVESGGGLVQAGGSLRLSCAASGSIFPHNAMGWYRQAPGKERELVAAITTIGGSTYYADSVKGRFTISRDNAKNTVYLQRNSLKPEDTAVYYCAADCATVLGFYTYDYWGQGTQVTVSS,low polyreactivity
10,QVQLVESGGGLVQAGGRLRLSCAASGSTFGTNDMGWYRQAPGKEREFVASIDWSGDSTNYADSVKGRFTISRDNAKNTVYLQMNSLKPEDTADYYCAARVFPQIYYTSYDYWGQGTQVTVSS,high polyreactivity
11,QVQLVESGGGLVQAGGSLRLSCAASGRIFSDYAMGRYRQAPGKDRELVATITTGDSTNYADSVKGRFTISRDNAKNTVYLQMNSLKPEDTAVYYCNADRFADYDYWGQGTQVTVSS,low polyreactivity
12,QVQLVESGGGLDQAGGSLRLSCAASGFTFGYYAMGWYRQAPGKERELVATIDRGGGTSYADSVKGRFTISRDNAKNTVYLQMNSLKPEDTAVYYCNRAGYGAKARRYRSYWGQGTQVTVSS,high polyreactivity
13,QVQLVDSGGGLVQAGGSLRLSCAASGFTFYRYAMGWYRPAPGKERELVAGITGSGGNTYYADSVKGRFTISRDNAKNTVYLQMNSLKPEDTAVYYCAAEDYVGWYNFEYWGQGNQVTVSS,high polyreactivity
14,QVQLVESGGGLVQAGGSLRLSCAASGSIFDTYSMGWYIQAPGKERELVAAISSGGRTYYADSVKGRFTISRDNAKNTVYLQMNSLKPEDTAVYYCNARYHARYGGDYWGQGTQVTVSS,high polyreactivity
15,QVQLVESGGGLVQAGGSLRLSCAASGPTIDLYAMGCYRQAPGKERELVATIRSDGSTTYADSVKGRFTISRDNAKNTVYLQLNSLKPEDTAVYDCAAAFRSGFSSSTTPVQSDWGQGTQVTVSS,low polyreactivity
16,QVQLVESGGGLVQAGGSLRLSCAASGSTFYPYAMGWYRQAPGKERELVAAISSGGSTYYADSVKGRFTISRDNAKNTVYLQMNSLKPEDTAVYYCAADFYYAYYWGQGTEVTVSS,low polyreactivity
17,QVQLVESGGGLVQAGGSLRLICAASGFIFGNYAMGWYRQAPGKERELVATITWRGGSTYYADSVKGRFTISRDNAKNTVYLQMNSLKPEDTAVYYCARPYASYRSFYYYGYWGQGTQVTVSS,high polyreactivity
18,QVQLVESGGGLVQAGGSLRLSCAASGSIFRGYAMGWYRQAPGKERELVAAISWSGGSTYYADSVKGRFTISRDNAKNTVYLQMNSLKPEDTAVYYCAVEYVAYLYRMDYWGQGTQVTVSS,high polyreactivity
19,QVQLVDTGGGLVQAGGSLRLSCSASGSIFEGYAMGWYRKAPGKERELVARITSDDDSTYYADSVKGRFTISRDKEKNTVYLQMNSLKAEDTAVYYCNADYYWTSLAMDSWGQGTQVTVSS,low polyreactivity
20,QVQLVESGGGLVQAGGSLRLSCAASGRIFYYYAMGWYRQAPGKERELVAAISTDVGGTFYAESVKGRFTISRANAKNTVYLQMNSLKPEDTAVDYCAVEYLWHGDEHDYWGQGTQVTVSS,high polyreactivity
21,QVQLVESGGGLVQAGGSLRLSCAASGRTFIYNVMGWYRQAPGKERELVAAISQRGGSTYYADSVKGRFTISRDNAKNTVYLQMNSLKPEDTAVYYCAAESYYKKWSDYWGQGTQVTVSS,high polyreactivity
